# The supplement of paper PMC10567573
# ± gives the standard deviation.
# Assay: protein stability index of a GFP-peptide fusion (GPS, HEK-293T) (PSI 1-6); higher = more stable
# [1] = treatment: DMSO, c terminus: a fixed tail appended
# [2] = treatment: MLN4924 1 uM, 8 h, c terminus: a fixed tail appended
# 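Also: 24-mer peptide tiles fused after GFP, lentivirally expressed, FACS-sorted into six equal bins by GFP/DsRed ratio, decoded by Illumina sequencing, PSI is the read-weighted mean bin number.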
Sequence,protein stability index [1],protein stability index [2],"protein stability index (treatment: DMSO, c terminus: native)","protein stability index (treatment: MLN4924 1 uM, 8 h, c terminus: native)"
SSSGYSSAEINQDLNIQLLKDGYR [FAM219A],3.67 ± 0.15,3.85 ± 0.22,–,–
SSSNEHAAPAAKTRKQAAKKVAPL [ELOA2],4.85 ± 0.32,4.92 ± 0.26,–,–
STPFKPLALKTPPRVLTLSERPLD [MFF],4.08 ± 0.17,4 ± 0.15,–,–
SVAVPPPPPNRMYPPPPPALPSSA [WASL],4.5 ± 0.18,4.53 ± 0.3,–,–
SVPIIGGFWETIFGNRIKRVKLIS [PHTF1],2.29 ± 0.23,1.94 ± 0.22,–,–
SVQVDGQARTQKLQGLIPGARYEV [TNXB],2.6 ± 0.62,3.28 ± 0.26,–,–
SVTRSCLLEEEEESGEEAAEAME [POP5],–,–,5.52 ± 0.23,5.49 ± 0.12
SWGWDLGRNRLYHDGKNQPSKTYP [SPSB1],3.65 ± 0.094,3.53 ± 0.34,–,–
SWIKMTKLEYEEIALDLTPVIEEL [FAN1],2.83 ± 0.69,2.7 ± 0.53,–,–
SYLMLVTVMMWPLAVYHRLWDRAY [RETREG3],3.62 ± 0.18,2.62 ± 0.6,–,–
SYYDPGRLICDFPFDGLLEERALL [VPS39],2.4 ± 0.34,2.68 ± 0.29,–,–
TAGDRLTEFRKGAQSLPGPCAAAR [IRX6],4.01 ± 0.18,4.17 ± 0.58,–,–
TALVGLRQNLSKSWLDVQVSNTYV [TPD52L3],2.39 ± 0.96,2.19 ± 0.53,–,–
TCECLEGFRLAEDGKRCRRKDVCK [MATN2],4.24 ± 0.25,4.83 ± 0.28,–,–
TCSFNPGVIVANMTEWKHQRITKQ [GLT8D2],3.12 ± 0.11,3.06 ± 0.15,–,–
TCTDRSGISTGHWSGEVKDKNVQV [FUT8],4.51 ± 0.21,4.49 ± 0.16,–,–
TDATAFWWGEWTKWTACSRSCGGG [ADAMTSL2],2.24 ± 0.68,2.59 ± 0.6,–,–
TDGLQEVPLCSCRMETPKSREITT [EHMT1],3.21 ± 0.25,3.07 ± 0.26,–,–
TDGRPQDSVAEVAAKARDTGILIF [MATN2],2.86 ± 0.23,3.12 ± 0.34,–,–
TENRRLESKIREHLEKKGPQVRDW [KRT18],3.92 ± 0.16,3.95 ± 0.33,–,–
TERGLSRKHIIEGLKASLERLQLE [KCNAB2],2.5 ± 0.32,2.22 ± 0.19,–,–
TESEIESETDFETEPETAPTTEPE [GNAS],5.66 ± 0.2,5.68 ± 0.27,–,–

Sequence,protein stability index [1],protein stability index [2],"protein stability index (treatment: DMSO, c terminus: native)","protein stability index (treatment: MLN4924 1 uM, 8 h, c terminus: native)"
TFLPYTFSLMVTFPDVPLGIFLFC [TMEM175],2.49 ± 0.14,2.98 ± 0.8,–,–
TFWKEDKAFWKEDNALWERDRNLL [CCDC70],2.95 ± 0.12,3.2 ± 0.43,–,–
TFYVRFFLTYVPLLGLKAFLGLFF [FADS1],2.93 ± 0.3,3.24 ± 0.29,–,–
TGERPHQCIECGKSFNRHCNLIRH [ZSCAN9],3.13 ± 0.17,3.35 ± 0.38,–,–
TGNPKSEEPEVPDQEGLQRITGLS [SPNS1],5.35 ± 0.26,5.41 ± 0.16,–,–
TGQSKIYSYMSPNKCSGMRFPLQE [KMT5A],2.28 ± 0.29,2.27 ± 0.11,–,–
THKKCKEEVVSTLDAVQVLSGVSQ [FCHO1],3.77 ± 0.23,3.64 ± 0.16,–,–
TIDDTISKFRRKDREDSPERCSDS [CLINT1],5.5 ± 0.3,5.44 ± 0.3,–,–
TILPQEIQSRVQELHPESGEEAVT [ZNF263],5.11 ± 0.25,5.33 ± 0.28,–,–
TKILQERAVLGANDPEKNFLTTAI [NSDHL],3.53 ± 0.14,3.38 ± 0.13,–,–
TKLQAQHVSYRELGACVRTAVAQG [SLC25A39],3.05 ± 0.42,3.29 ± 0.32,–,–
TKPSFESGRRGPPPPPRSRGPPRG [RBMX],4.74 ± 0.33,4.81 ± 0.29,–,–
TKPVVILPCQHNLCRKCANDIFQA [TRIM63],2.36 ± 0.26,2.55 ± 0.27,–,–
TLDGRTPLHLAAQRGHYRVARILI [RIPK4],1.97 ± 0.44,1.92 ± 0.36,–,–
TLGEVPAAESPDPPQSPQGASSLP [MAGEA3],5.5 ± 0.22,5.37 ± 0.1,–,–
TLGQAWQGYVSDIRRFLSAFHEPQ [DFFB],2.29 ± 0.18,2.04 ± 0.22,–,–
TLHPISSEELLSLKYENDYPSVIL [ETS1],2.55 ± 0.17,2.76 ± 0.23,–,–
TLSFNMSDKYPIQDTELPKAEECD [EDARADD],4.55 ± 0.39,4.36 ± 0.31,–,–
TLVDESDLYNWEVAIFGPPNTLYE [UBE2R2],2.71 ± 0.17,2.81 ± 0.17,–,–
TMGAVVLSSTLLSFSTAIGRTCIT [MFSD9],2.98 ± 0.48,3.22 ± 0.29,–,–
TNAGFLQTESELQELSEVLELLSA [FAN1],3.04 ± 0.21,3.03 ± 0.53,–,–
TNALTHTVAMSTLNFCGPNVINHF [OR3A1],2.41 ± 0.57,2.47 ± 0.27,–,–
